In patent publication US20220041718A1 (AUTOLUS, published 2022) one finds Kd, binding result and half-life data, which are given here for 16 molecules.

A word on the Kd: it is the concentration at which binding is half-saturated. Broadly, the half-life is the time in which the quantity being followed falls by half.

Experiment [1] deals with T1, Recombinant purified TRBC2 (human, UniProt A0A5B9 1-129, limits assumed).
T1 construct: Construct not described (may be a soluble TCR carrying TRBC2); also called TCR beta constant region 2; soluble recombinant biotinylated TRBC2
Description: SPR, IgG captured on anti-human Fc, TRBC2 as analyte. (In SPR one partner is held on a chip, and binding of the other changes the refractive index at the surface.)

The target of experiment [2] is T2, Recombinant purified TRBC1 (human, UniProt P01850 1-129, limits assumed).
T2 construct: Construct not described (may be a soluble TCR carrying TRBC1); also called TCR beta constant region 1; soluble recombinant biotinylated TRBC1
Nature of the experiment: SPR, IgG captured on anti-human Fc, TRBC1 as analyte.

In experiment [3] the target is T1, Recombinant purified TRBC2. Description: SPR, biotinylated TRBC captured on CAP chip, antibody injected; t1/2=ln 2/kd. The procedure: To test multivalent interaction of scFv-Fc and scFv-COMP antibody formats, a series S CAP chip was immobilised with Biotin capture reagent to 2500-5000 RU. Soluble recombinant biotinylated TRBC1 and TRBC2 were captured on flow cells 3, in independent experimental cycles, to a density of 90-110 RU. Purified anti-TRBC2 scFv-Fc or scFv-COMP antibodies were injected over the flow cell with 150s contact time and 300s dissociation at 30 μl/minute of flow rate. On flow cell 1, biotinylated protein was omitted and used for reference subtraction. A ‘0 concentration’ sensorgram of buffer alone was used as a double reference subtraction to factor for drift. Data were fit to a 1:1 Langmuir binding model. Since a capture system was used, a local Rmax parameter was used for the data fitting in each case. Off-rate value was determined, and half-life calculated according to: t1/2=ln 2/kd.

T1 sequence (A0A5B9 1-129 limits assumed): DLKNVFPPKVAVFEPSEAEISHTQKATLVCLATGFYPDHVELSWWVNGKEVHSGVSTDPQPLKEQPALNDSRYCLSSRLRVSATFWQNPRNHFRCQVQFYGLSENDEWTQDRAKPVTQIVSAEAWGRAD
T2 sequence (P01850 1-129 limits assumed): as the sequence (A0A5B9 1-129 limits assumed) above, with K3N, N4K, K9E, Y36F counted along it

B1: hJovi-1 variant IgG, VH T28K, Y32F, A100N, Y102F; VL N35R (antibody, V domains shown)
VH: QVQLVQSGAEVKKPGASVKVSCKASGYKFTGFVMHWVRQAPGQGLEWMGFINPYNDDIQSNERFRGRVTMTRDTSISTAYMELSRLRSDDTAVYYCARGNGFNFDGAYRFFDFWGQGTMVTVSS
VL: DIVMTQSPLSLPVTPGEPASISCRSSQRLVHSNGRTYLHWYLQKPGQSPRLLIYRVSNRFPGVPDRFSGSGSGTDFTLKISRVEAEDVGVYYCSQSTHVPYTFGQGTKLEIK
notes: IgG format
In the case of B1, the Kd amounted to 2.7 µM in experiment [1] and 18.9 µM in experiment [2].

B2: hJovi-1 variant IgG, VH T28K, Y32F, A100N, Y102L, N103W; VL N35R (antibody, V domains shown)
VH: QVQLVQSGAEVKKPGASVKVSCKASGYKFTGFVMHWVRQAPGQGLEWMGFINPYNDDIQSNERFRGRVTMTRDTSISTAYMELSRLRSDDTAVYYCARGNGLWFDGAYRFFDFWGQGTMVTVSS
VL: DIVMTQSPLSLPVTPGEPASISCRSSQRLVHSNGRTYLHWYLQKPGQSPRLLIYRVSNRFPGVPDRFSGSGSGTDFTLKISRVEAEDVGVYYCSQSTHVPYTFGQGTKLEIK
notes: IgG format
Turning to B2, the Kd in experiment [1] stood at 1.51 µM. In addition, the binding result in experiment [2] is “no binding”.

B3: hJovi-1 variant IgG, VH T28K, Y32F, A100N; VL N35K (antibody, V domains shown)
VH: QVQLVQSGAEVKKPGASVKVSCKASGYKFTGFVMHWVRQAPGQGLEWMGFINPYNDDIQSNERFRGRVTMTRDTSISTAYMELSRLRSDDTAVYYCARGNGYNFDGAYRFFDFWGQGTMVTVSS
VL: DIVMTQSPLSLPVTPGEPASISCRSSQRLVHSNGKTYLHWYLQKPGQSPRLLIYRVSNRFPGVPDRFSGSGSGTDFTLKISRVEAEDVGVYYCSQSTHVPYTFGQGTKLEIK
notes: IgG format
Regarding B3, the Kd in experiment [1] stood at 0.192 µM; in experiment [2] it was 1 µM.

B4: hJovi-1 variant IgG, VH T28K, Y32F, A100N, Y102L, N103M; VL N35R (antibody, V domains shown)
VH: QVQLVQSGAEVKKPGASVKVSCKASGYKFTGFVMHWVRQAPGQGLEWMGFINPYNDDIQSNERFRGRVTMTRDTSISTAYMELSRLRSDDTAVYYCARGNGLMFDGAYRFFDFWGQGTMVTVSS
VL: DIVMTQSPLSLPVTPGEPASISCRSSQRLVHSNGRTYLHWYLQKPGQSPRLLIYRVSNRFPGVPDRFSGSGSGTDFTLKISRVEAEDVGVYYCSQSTHVPYTFGQGTKLEIK
notes: IgG format
Take B4: the Kd in experiment [1] is 1.9 µM. For the same molecule, the binding result in experiment [2] is “no binding”.

B5: hJovi-1 variant IgG, VH V2R, T28K, Y32F, A100N; VL unmutated (antibody, V domains shown)
VH: QRQLVQSGAEVKKPGASVKVSCKASGYKFTGFVMHWVRQAPGQGLEWMGFINPYNDDIQSNERFRGRVTMTRDTSISTAYMELSRLRSDDTAVYYCARGNGYNFDGAYRFFDFWGQGTMVTVSS
VL: DIVMTQSPLSLPVTPGEPASISCRSSQRLVHSNGNTYLHWYLQKPGQSPRLLIYRVSNRFPGVPDRFSGSGSGTDFTLKISRVEAEDVGVYYCSQSTHVPYTFGQGTKLEIK
notes: IgG format
For the molecule B5, the Kd stood at 1.6 µM in experiment [1] and 5.11 µM in experiment [2].

B6: hJovi-1 variant IgG, VH Y27F, T28K, Y32F, A100N; VL unmutated (antibody, V domains shown)
VH: QVQLVQSGAEVKKPGASVKVSCKASGFKFTGFVMHWVRQAPGQGLEWMGFINPYNDDIQSNERFRGRVTMTRDTSISTAYMELSRLRSDDTAVYYCARGNGYNFDGAYRFFDFWGQGTMVTVSS
VL: DIVMTQSPLSLPVTPGEPASISCRSSQRLVHSNGNTYLHWYLQKPGQSPRLLIYRVSNRFPGVPDRFSGSGSGTDFTLKISRVEAEDVGVYYCSQSTHVPYTFGQGTKLEIK
notes: IgG format
Take B6: the Kd in experiment [1] came out at 1.21 µM; in experiment [2], 4.48 µM.

B7: hJovi-1 variant IgG, VH T28K, Y32F, A100N; VL N35F (antibody, V domains shown)
VH: QVQLVQSGAEVKKPGASVKVSCKASGYKFTGFVMHWVRQAPGQGLEWMGFINPYNDDIQSNERFRGRVTMTRDTSISTAYMELSRLRSDDTAVYYCARGNGYNFDGAYRFFDFWGQGTMVTVSS
VL: DIVMTQSPLSLPVTPGEPASISCRSSQRLVHSNGFTYLHWYLQKPGQSPRLLIYRVSNRFPGVPDRFSGSGSGTDFTLKISRVEAEDVGVYYCSQSTHVPYTFGQGTKLEIK
notes: IgG format
For the molecule B7, the figures for the dissociation constant Kd in experiment [1] and in experiment [2] were 0.646 µM and 2.81 µM, respectively.

B8: hJovi-1 variant IgG, VH T28K, Y32F, A100N; VL N35R (antibody, V domains shown)
VH: QVQLVQSGAEVKKPGASVKVSCKASGYKFTGFVMHWVRQAPGQGLEWMGFINPYNDDIQSNERFRGRVTMTRDTSISTAYMELSRLRSDDTAVYYCARGNGYNFDGAYRFFDFWGQGTMVTVSS
VL: DIVMTQSPLSLPVTPGEPASISCRSSQRLVHSNGRTYLHWYLQKPGQSPRLLIYRVSNRFPGVPDRFSGSGSGTDFTLKISRVEAEDVGVYYCSQSTHVPYTFGQGTKLEIK
notes: IgG format
B8: the values for the Kd in experiment [1] and in experiment [2] were 0.202 µM and 0.929 µM, respectively.

B9: hJovi-1 variant IgG, VH V2K, T28K, Y32F, A100N; VL unmutated (antibody, V domains shown)
VH: QKQLVQSGAEVKKPGASVKVSCKASGYKFTGFVMHWVRQAPGQGLEWMGFINPYNDDIQSNERFRGRVTMTRDTSISTAYMELSRLRSDDTAVYYCARGNGYNFDGAYRFFDFWGQGTMVTVSS
VL: DIVMTQSPLSLPVTPGEPASISCRSSQRLVHSNGNTYLHWYLQKPGQSPRLLIYRVSNRFPGVPDRFSGSGSGTDFTLKISRVEAEDVGVYYCSQSTHVPYTFGQGTKLEIK
notes: IgG format
Consider B9, for which the Kd was 0.883 µM in experiment [1] and 2.4 µM in experiment [2].

B10: hJovi-1 variant IgG, VH T28K, Y32F, R98K, A100N; VL unmutated (antibody, V domains shown)
VH: QVQLVQSGAEVKKPGASVKVSCKASGYKFTGFVMHWVRQAPGQGLEWMGFINPYNDDIQSNERFRGRVTMTRDTSISTAYMELSRLRSDDTAVYYCAKGNGYNFDGAYRFFDFWGQGTMVTVSS
VL: DIVMTQSPLSLPVTPGEPASISCRSSQRLVHSNGNTYLHWYLQKPGQSPRLLIYRVSNRFPGVPDRFSGSGSGTDFTLKISRVEAEDVGVYYCSQSTHVPYTFGQGTKLEIK
notes: IgG format
B10: the results for the dissociation constant (Kd) in experiment [1] and in experiment [2] were 1.08 µM and 4.66 µM, respectively.

B11: hJovi-1 variant IgG, VH T28K, Y32F, A100N, Y102F; VL unmutated (antibody, V domains shown)
VH: QVQLVQSGAEVKKPGASVKVSCKASGYKFTGFVMHWVRQAPGQGLEWMGFINPYNDDIQSNERFRGRVTMTRDTSISTAYMELSRLRSDDTAVYYCARGNGFNFDGAYRFFDFWGQGTMVTVSS
VL: DIVMTQSPLSLPVTPGEPASISCRSSQRLVHSNGNTYLHWYLQKPGQSPRLLIYRVSNRFPGVPDRFSGSGSGTDFTLKISRVEAEDVGVYYCSQSTHVPYTFGQGTKLEIK
notes: IgG format
As for B11, the Kd in experiment [1] stood at 2.61 µM. In addition, the binding result in experiment [2] is “no binding”.

B12: hJovi-1 variant IgG, VH Y27W, T28K, Y32F, A100N; VL unmutated (antibody, V domains shown)
VH: QVQLVQSGAEVKKPGASVKVSCKASGWKFTGFVMHWVRQAPGQGLEWMGFINPYNDDIQSNERFRGRVTMTRDTSISTAYMELSRLRSDDTAVYYCARGNGYNFDGAYRFFDFWGQGTMVTVSS
VL: DIVMTQSPLSLPVTPGEPASISCRSSQRLVHSNGNTYLHWYLQKPGQSPRLLIYRVSNRFPGVPDRFSGSGSGTDFTLKISRVEAEDVGVYYCSQSTHVPYTFGQGTKLEIK
notes: IgG format
Take B12: the Kd turned out to be 3.06 µM in experiment [1] and 21 µM in experiment [2].

B13: hJovi-1 variant IgG, VH T28K, Y32F, A100N, Y102L, N103W; VL N35K (antibody, V domains shown)
VH: QVQLVQSGAEVKKPGASVKVSCKASGYKFTGFVMHWVRQAPGQGLEWMGFINPYNDDIQSNERFRGRVTMTRDTSISTAYMELSRLRSDDTAVYYCARGNGLWFDGAYRFFDFWGQGTMVTVSS
VL: DIVMTQSPLSLPVTPGEPASISCRSSQRLVHSNGKTYLHWYLQKPGQSPRLLIYRVSNRFPGVPDRFSGSGSGTDFTLKISRVEAEDVGVYYCSQSTHVPYTFGQGTKLEIK
notes: IgG format
As to B13, in experiment [1], the dissociation constant (Kd) is 1.72 µM. For the same molecule, the binding result in experiment [2] is given as “no binding”.

B14: hJovi-1 variant IgG, VH Y27N, T28K, Y32F, A100N; VL unmutated (antibody, V domains shown)
VH: QVQLVQSGAEVKKPGASVKVSCKASGNKFTGFVMHWVRQAPGQGLEWMGFINPYNDDIQSNERFRGRVTMTRDTSISTAYMELSRLRSDDTAVYYCARGNGYNFDGAYRFFDFWGQGTMVTVSS
VL: DIVMTQSPLSLPVTPGEPASISCRSSQRLVHSNGNTYLHWYLQKPGQSPRLLIYRVSNRFPGVPDRFSGSGSGTDFTLKISRVEAEDVGVYYCSQSTHVPYTFGQGTKLEIK
notes: IgG format
On to B14, for which the values for the dissociation constant Kd in experiment [1] and in experiment [2] were 6.95 µM and 74.3 µM, respectively.

B15: hJovi-1 variant IgG, VH T28R, Y32F, A100N; VL unmutated (antibody, V domains shown)
VH: QVQLVQSGAEVKKPGASVKVSCKASGYRFTGFVMHWVRQAPGQGLEWMGFINPYNDDIQSNERFRGRVTMTRDTSISTAYMELSRLRSDDTAVYYCARGNGYNFDGAYRFFDFWGQGTMVTVSS
VL: DIVMTQSPLSLPVTPGEPASISCRSSQRLVHSNGNTYLHWYLQKPGQSPRLLIYRVSNRFPGVPDRFSGSGSGTDFTLKISRVEAEDVGVYYCSQSTHVPYTFGQGTKLEIK
notes: IgG format
For B15, the equilibrium dissociation constant (Kd) in experiment [1] was 0.582 µM; in experiment [2], 1.44 µM.

B16: anti-TRBC2 scFv-Fc (T28K, Y32F, A100N, Y102L, N103M in VH; N35R in VL of hJovi-1) (Fc fusion)
chain: QVQLVQSGAEVKKPGASVKVSCKASGYKFTGFVMHWVRQAPGQGLEWMGFINPYNDDIQSNERFRGRVTMTRDTSISTAYMELSRLRSDDTAVYYCARGNGLMFDGAYRFFDFWGQGTMVTVSSGGGGSGGGGSGGGGSDIVMTQSPLSLPVTPGEPASISCRSSQRLVHSNGRTYLHWYLQKPGQSPRLLIYRVSNRFPGVPDRFSGSGSGTDFTLKISRVEAEDVGVYYCSQSTHVPYTFGQGTKLEIKRSDPRGPTIKPCPPCKCPAPNLLGGPSVFIFPPKIKDVLMISLSPIVTCVVVDVSEDDPDVQISWFVNNVEVHTAQTQTHREDYNSTLRVVSALPIQHQDWMSGKEFKCKVNNKDLPAPIERTISKPKGSVRAPQVYVLPPPEEEMTKKQVTLTCMVTDFMPEDIYVEWTNNGKTELNYKNTEPVLDSDGSYFMYSKLRVEKKNWVERNSYSCSVVHEGLHNHHTTKSFSRTPGK
notes: Multivalent format
With B16, in experiment [3], the half-life came to 16.2 s.
